For one molecule, T2A2 Binding (MFI) and T2 Binding (MFI) results are on record in patent publication US20140363495A1.

Test [1] has as its target HLA-A2 molecules on T2A2 cells (human). Briefly: flow cytometry, upregulation of HLA-A2 on T2A2 cells, peptide 25 µg/mL, negative control. The conditions noted are these: remark: other sources report otherwise. Background: In flow cytometry, cells or beads pass a laser one at a time.
Test [2] shares this target. Put plainly: flow cytometry, upregulation of HLA-A2 on T2A2 cells, peptide 12.5 µg/mL, negative control. The following applies: remark: other sources report otherwise.

Molecule HLFGYSWYK [CAP-7] came in with a T2A2 Binding (MFI) in test [1] of 83.8 MFI. This molecule returned a T2 Binding (MFI) in test [2] of 109 MFI.
